According to the supplement of paper PMC7877785:
± gives the uncertainty stated by the source.

Experiment: self-splicing fitness, log relative to wild type (ln ratio); higher = more splicing; Tetrahymena group I intron in knt gene, E. coli kanamycin selection, DiMSum; sequences stand for … in CUCUCU…GGAGGGAAAAGUUAUCAGGCAUGCACCUGGUAGCUAGUCUUUAAACCAAUAGAUUGCAUCGGUUUAAAAGGCAAGACCGUCAAAUUGCGGGAAAGGGGUCAACAGCCGUUCAGUACCAAGUCUCAGGGGAAACUUUGAGAUGGCCUUGCAAAGGGUAUGGUAAUAAGCUGACGGACAUGGUCCUAACCACGCAGCCAAGUCCUAAGUCAACAGAUCUUCUGUUGAUAUGGAUGCAGUUCACAGACUAAAUGUCGGUCGGGGAAGAUGUAUUCUUCUCAUAAGAUAUAGUCGGACCUCUCCUUAAUGGGAGCUAGCGGAUGAAGUGAUGCAACACUGGAGCCGCUGGGAACUAAUUUGUAUGCGAAAGUAUAUUGAUUAGUUUUGGAGUACUCGUGGUCG
Summary of the method: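 A randomised library covering all eight P1ex-region intron nucleotides was built with the intron in the knt kanamycin-resistance gene on pET-22b(+) and held in E. coli BL21(DE3). Cells were grown overnight at 37°C or 30°C on LB agar, with or without 25 μg/mL kanamycin, plus 100 μg/mL carbenicillin, 50 μM IPTG and 0.2% rhamnose, and pooled colonies were amplicon-sequenced on an Illumina HiSeq 2500. DiMSum fitness is the error-weighted combination of wild-type-normalised replicate fold changes, kanamycin versus none.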

Sequence	self-splicing fitness (ln) (30 °C)	self-splicing fitness (ln) (37 °C)
CGCAAGCAAUAUUACGAAGC	-2.55 ± 0.13	-3.1 ± 0.19
CGCAAGCAAUAUUACGACUC	-1.3 ± 0.12	-0.869 ± 0.19
CGCAAGCAAUAUUACGCAAU	-2.94 ± 0.21	-2.14 ± 0.26
CGCAAGCAAUAUUACGCAGC		-2.35 ± 0.27
CGCAAGCAAUAUUACGCCCA	-0.622 ± 0.17	-0.291 ± 0.16
CGCAAGCAAUAUUACGCGUG	-3.08 ± 0.12	-1.99 ± 0.13
CGCAAGCAAUAUUACGCUCU	-1.26 ± 0.093	-0.475 ± 0.094
CGCAAGCAAUAUUACGGAUA	-3.52 ± 0.22	-2.23 ± 0.16
CGCAAGCAAUAUUACGGCCG	-1.1 ± 0.14	-0.644 ± 0.26
CGCAAGCAAUAUUACGGUGG	-0.599 ± 0.064	-0.2 ± 0.079
CGCAAGCAAUAUUACGUAAA	-3.18 ± 0.14	-2.12 ± 0.18
CGCAAGCAAUAUUACGUCCU	-1.2 ± 0.11	-0.366 ± 0.12
CGCAAGCAAUAUUACGUCGC	-2.24 ± 0.19	-3.19 ± 0.29
CGCAAGCAAUAUUACGUGGU	-3.75 ± 0.17	-3.22 ± 0.19
CGCCAGCAAUAUUACGAAAG	-0.802 ± 0.054	0.0641 ± 0.081
CGCCAGCAAUAUUACGAAUG	-0.783 ± 0.058	0.0658 ± 0.066
CGCCAGCAAUAUUACGACUA	-2.15 ± 0.2	-2.13 ± 0.2
CGCCAGCAAUAUUACGAGCC	-1.63 ± 0.14	-0.446 ± 0.18
CGCCAGCAAUAUUACGCACA	-1.68 ± 0.2	-1.65 ± 0.27
CGCCAGCAAUAUUACGCGAA	-2.14 ± 0.15	-1.38 ± 0.15
CGCCAGCAAUAUUACGCUUU	-2.9 ± 0.13	-1.13 ± 0.12
CGCCAGCAAUAUUACGGAAA	-1.48 ± 0.17	-1.93 ± 0.17
CGCCAGCAAUAUUACGGAGG	-3.32 ± 0.18	-0.355 ± 0.12
CGCCAGCAAUAUUACGGCCG	-2.9 ± 0.14	-0.755 ± 0.18
CGCCAGCAAUAUUACGGCGG	-2.23 ± 0.13	-1.83 ± 0.17

Sequence	self-splicing fitness (ln) (30 °C)	self-splicing fitness (ln) (37 °C)
CGCCAGCAAUAUUACGGCGU	-3.63 ± 0.46	-2.17 ± 0.23
CGCCAGCAAUAUUACGGGAG	-1.92 ± 0.072	-1.38 ± 0.094
CGCCAGCAAUAUUACGUCCU	-4.8 ± 0.36	-2.45 ± 0.31
CGCCAGCAAUAUUACGUCGG	-3.04 ± 0.21	-1.91 ± 0.21
CGCCAGCAAUAUUACGUCUG	-2.97 ± 0.18	-0.917 ± 0.13
CGCCAGCAAUAUUACGUGAG	-1.37 ± 0.078	-1.25 ± 0.11
CGCCAGCAAUAUUACGUGCA	-0.897 ± 0.056	0.212 ± 0.085
CGCGAGCAAUAUUACGAAAA	-1.55 ± 0.43	-3.06 ± 0.4
CGCGAGCAAUAUUACGAACC		-0.306 ± 0.33
CGCGAGCAAUAUUACGAAUA	-2.84 ± 0.35	-2.25 ± 0.38
CGCGAGCAAUAUUACGACCC	-0.487 ± 0.44	
CGCGAGCAAUAUUACGCGAC	-2.96 ± 0.34	-0.404 ± 0.39
CGCGAGCAAUAUUACGCGCG		-2.07 ± 0.29
CGCGAGCAAUAUUACGCGGC		-2.4 ± 0.38
CGCGAGCAAUAUUACGCGUA	-2.59 ± 0.37	-2.52 ± 0.28
CGCGAGCAAUAUUACGCUAA	-2.95 ± 0.27	-2.55 ± 0.28
CGCGAGCAAUAUUACGCUUG	-3.06 ± 0.2	-1.46 ± 0.22
CGCGAGCAAUAUUACGGGAG	-3.66 ± 0.19	-2.91 ± 0.22
CGCGAGCAAUAUUACGGGGA	-1.94 ± 0.28	-2.41 ± 0.29
CGCGAGCAAUAUUACGGGGU	-4.28 ± 0.23	-2.95 ± 0.22
CGCGAGCAAUAUUACGGGUC	-3.27 ± 0.2	-2.38 ± 0.31
CGCGAGCAAUAUUACGGUCC	-3.29 ± 0.4	-2.12 ± 0.44
CGCGAGCAAUAUUACGGUUG	-1.73 ± 0.068	-1.76 ± 0.12
CGCGAGCAAUAUUACGUAAC	-2.76 ± 0.41	-1.76 ± 0.27
